Laboratory results published in the supplement of paper PMC12855868.

B1: library; numbered along this chain (parent)
chain: MAAAGGARLLRAASAVLGGPAGRWLHHAGSRAGSSGLLRNRGPGGSAEASRSLSVSARARSSSEDKITVHFINRDGETLTTKGKVGDSLLDVVVENNLDIDGFGACEGTLACSTCHLIFEDHIYEKLDAITDEENDMLDLAYGLTDRSRLGCQICLTKSMDNMTVRVPETVADARQSIDVGKTS

Variants of: B1
Test: scaled log2 fold change in cell abundance, elesclomol vs control (0 = silent mean, 1 = nonsense mean) (scaled log2 ratio); higher = higher viability under elesclomol (loss of FDX1 cuproptosis function)
Settings: glucose 10 mM
Method: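 Deep mutational scan of full-length human FDX1: a pooled saturation-mutagenesis ORF library (every residue 2-184 mutated to all 19 amino acids plus stop, and silent codons where available) was expressed by lentivirus in FDX1-knockout ABC1 (14 days) or HEK293T (11 days) cells grown with elesclomol (ES) or DMSO control. Variant abundance came from ORF sequencing. The log2 fold change (ES vs control, mean of duplicates) was centred on the silent-variant mean (0) and scaled to the nonsense-variant mean (1). Higher values mean greater viability under ES, i.e. loss of FDX1 function in cuproptosis.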

[1] = with ABC1 FDX1 KO, elesclomol 5 nM, 14 days
[2] = with HEK293T FDX1 KO, elesclomol 40 nM, 11 days
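Note: variant abundance is its share of total variant reads in each endpoint sample, from next-generation sequencing of the integrated ORF PCR-amplified out of genomic DNA.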

Row | Variant | scaled log2 fold change [1] | scaled log2 fold change [2]
1 | MAAAGGARLLRAASAVLGGPALRWLHHAGSRAGSSGLLRNRGPGGSAEASRSLSVSARARSSSEDKITVHFINRDGETLTTKGKVGDSLLDVVVENNLDIDGFGACEGTLACSTCHLIFEDHIYEKLDAITDEENDMLDLAYGLTDRSRLGCQICLTKSMDNMTVRVPETVADARQSIDVGKTS | -0.306 | 
2 | MAAAGGARLLRAASAVLGGPAFRWLHHAGSRAGSSGLLRNRGPGGSAEASRSLSVSARARSSSEDKITVHFINRDGETLTTKGKVGDSLLDVVVENNLDIDGFGACEGTLACSTCHLIFEDHIYEKLDAITDEENDMLDLAYGLTDRSRLGCQICLTKSMDNMTVRVPETVADARQSIDVGKTS | 0.555 | 
3 | MAAAGGARLLRAASAVLGGPACRWLHHAGSRAGSSGLLRNRGPGGSAEASRSLSVSARARSSSEDKITVHFINRDGETLTTKGKVGDSLLDVVVENNLDIDGFGACEGTLACSTCHLIFEDHIYEKLDAITDEENDMLDLAYGLTDRSRLGCQICLTKSMDNMTVRVPETVADARQSIDVGKTS | -0.919 | 
4 | MAAAGGARLLRAASAVLGGPAARWLHHAGSRAGSSGLLRNRGPGGSAEASRSLSVSARARSSSEDKITVHFINRDGETLTTKGKVGDSLLDVVVENNLDIDGFGACEGTLACSTCHLIFEDHIYEKLDAITDEENDMLDLAYGLTDRSRLGCQICLTKSMDNMTVRVPETVADARQSIDVGKTS | 0.412 | 
5 | MAAAGGARLLRAASAVLGGPAIRWLHHAGSRAGSSGLLRNRGPGGSAEASRSLSVSARARSSSEDKITVHFINRDGETLTTKGKVGDSLLDVVVENNLDIDGFGACEGTLACSTCHLIFEDHIYEKLDAITDEENDMLDLAYGLTDRSRLGCQICLTKSMDNMTVRVPETVADARQSIDVGKTS | 0.314 | 0.699
6 | MAAAGGARLLRAASAVLGGPAERWLHHAGSRAGSSGLLRNRGPGGSAEASRSLSVSARARSSSEDKITVHFINRDGETLTTKGKVGDSLLDVVVENNLDIDGFGACEGTLACSTCHLIFEDHIYEKLDAITDEENDMLDLAYGLTDRSRLGCQICLTKSMDNMTVRVPETVADARQSIDVGKTS | -0.42 | -0.0922
7 | MAAAGGARLLRAASAVLGGPAMRWLHHAGSRAGSSGLLRNRGPGGSAEASRSLSVSARARSSSEDKITVHFINRDGETLTTKGKVGDSLLDVVVENNLDIDGFGACEGTLACSTCHLIFEDHIYEKLDAITDEENDMLDLAYGLTDRSRLGCQICLTKSMDNMTVRVPETVADARQSIDVGKTS | 0.793 | 
8 | MAAAGGARLLRAASAVLGGPAKRWLHHAGSRAGSSGLLRNRGPGGSAEASRSLSVSARARSSSEDKITVHFINRDGETLTTKGKVGDSLLDVVVENNLDIDGFGACEGTLACSTCHLIFEDHIYEKLDAITDEENDMLDLAYGLTDRSRLGCQICLTKSMDNMTVRVPETVADARQSIDVGKTS | 0.385 | 0.488
9 | MAAAGGARLLRAASAVLGGPAHRWLHHAGSRAGSSGLLRNRGPGGSAEASRSLSVSARARSSSEDKITVHFINRDGETLTTKGKVGDSLLDVVVENNLDIDGFGACEGTLACSTCHLIFEDHIYEKLDAITDEENDMLDLAYGLTDRSRLGCQICLTKSMDNMTVRVPETVADARQSIDVGKTS | 0.331 | 0.022
10 | MAAAGGARLLRAASAVLGGPAPRWLHHAGSRAGSSGLLRNRGPGGSAEASRSLSVSARARSSSEDKITVHFINRDGETLTTKGKVGDSLLDVVVENNLDIDGFGACEGTLACSTCHLIFEDHIYEKLDAITDEENDMLDLAYGLTDRSRLGCQICLTKSMDNMTVRVPETVADARQSIDVGKTS | 0.294 | 
11 | MAAAGGARLLRAASAVLGGPNGRWLHHAGSRAGSSGLLRNRGPGGSAEASRSLSVSARARSSSEDKITVHFINRDGETLTTKGKVGDSLLDVVVENNLDIDGFGACEGTLACSTCHLIFEDHIYEKLDAITDEENDMLDLAYGLTDRSRLGCQICLTKSMDNMTVRVPETVADARQSIDVGKTS | -0.1 | -0.618
12 | MAAAGGARLLRAASAVLGGPLGRWLHHAGSRAGSSGLLRNRGPGGSAEASRSLSVSARARSSSEDKITVHFINRDGETLTTKGKVGDSLLDVVVENNLDIDGFGACEGTLACSTCHLIFEDHIYEKLDAITDEENDMLDLAYGLTDRSRLGCQICLTKSMDNMTVRVPETVADARQSIDVGKTS | 0.235 | 0.118
13 | MAAAGGARLLRAASAVLGGPVGRWLHHAGSRAGSSGLLRNRGPGGSAEASRSLSVSARARSSSEDKITVHFINRDGETLTTKGKVGDSLLDVVVENNLDIDGFGACEGTLACSTCHLIFEDHIYEKLDAITDEENDMLDLAYGLTDRSRLGCQICLTKSMDNMTVRVPETVADARQSIDVGKTS | 0.197 | 
14 | MAAAGGARLLRAASAVLGGPTGRWLHHAGSRAGSSGLLRNRGPGGSAEASRSLSVSARARSSSEDKITVHFINRDGETLTTKGKVGDSLLDVVVENNLDIDGFGACEGTLACSTCHLIFEDHIYEKLDAITDEENDMLDLAYGLTDRSRLGCQICLTKSMDNMTVRVPETVADARQSIDVGKTS | -0.223 | -0.058
15 | MAAAGGARLLRAASAVLGGPSGRWLHHAGSRAGSSGLLRNRGPGGSAEASRSLSVSARARSSSEDKITVHFINRDGETLTTKGKVGDSLLDVVVENNLDIDGFGACEGTLACSTCHLIFEDHIYEKLDAITDEENDMLDLAYGLTDRSRLGCQICLTKSMDNMTVRVPETVADARQSIDVGKTS | 0.463 | -0.189
16 | MAAAGGARLLRAASAVLGGPRGRWLHHAGSRAGSSGLLRNRGPGGSAEASRSLSVSARARSSSEDKITVHFINRDGETLTTKGKVGDSLLDVVVENNLDIDGFGACEGTLACSTCHLIFEDHIYEKLDAITDEENDMLDLAYGLTDRSRLGCQICLTKSMDNMTVRVPETVADARQSIDVGKTS | -0.644 | -0.0217
17 | MAAAGGARLLRAASAVLGGPPGRWLHHAGSRAGSSGLLRNRGPGGSAEASRSLSVSARARSSSEDKITVHFINRDGETLTTKGKVGDSLLDVVVENNLDIDGFGACEGTLACSTCHLIFEDHIYEKLDAITDEENDMLDLAYGLTDRSRLGCQICLTKSMDNMTVRVPETVADARQSIDVGKTS | 0.0803 | 
18 | MAAAGGARLLRAASAVLGGPYGRWLHHAGSRAGSSGLLRNRGPGGSAEASRSLSVSARARSSSEDKITVHFINRDGETLTTKGKVGDSLLDVVVENNLDIDGFGACEGTLACSTCHLIFEDHIYEKLDAITDEENDMLDLAYGLTDRSRLGCQICLTKSMDNMTVRVPETVADARQSIDVGKTS | -0.187 | 
19 | MAAAGGARLLRAASAVLGGPQGRWLHHAGSRAGSSGLLRNRGPGGSAEASRSLSVSARARSSSEDKITVHFINRDGETLTTKGKVGDSLLDVVVENNLDIDGFGACEGTLACSTCHLIFEDHIYEKLDAITDEENDMLDLAYGLTDRSRLGCQICLTKSMDNMTVRVPETVADARQSIDVGKTS | -0.931 | 0.318
20 | MAAAGGARLLRAASAVLGGPKGRWLHHAGSRAGSSGLLRNRGPGGSAEASRSLSVSARARSSSEDKITVHFINRDGETLTTKGKVGDSLLDVVVENNLDIDGFGACEGTLACSTCHLIFEDHIYEKLDAITDEENDMLDLAYGLTDRSRLGCQICLTKSMDNMTVRVPETVADARQSIDVGKTS | -0.827 | 
21 | MAAAGGARLLRAASAVLGGPMGRWLHHAGSRAGSSGLLRNRGPGGSAEASRSLSVSARARSSSEDKITVHFINRDGETLTTKGKVGDSLLDVVVENNLDIDGFGACEGTLACSTCHLIFEDHIYEKLDAITDEENDMLDLAYGLTDRSRLGCQICLTKSMDNMTVRVPETVADARQSIDVGKTS | -0.216 | -0.139
